Laboratory results reported in patent publication US20190071490A1, “Preventing Post-Ictal Headaches” (Beth Israel Deaconess Medical Center, Inc., priority 2017, published 2019).

Tested on: CSD-sensitized central trigeminovascular neurons (HT, WDR) in the spinal trigeminal nucleus
Experiment: Activation and sensitization of trigeminovascular neurons by cortical spreading depression (CSD)
Format: in vivo, rat
Conditions: for mean firing rate of HT neurons after CSD: 6 hours after 30 mg/kg i.v.; for mean firing rate of HT neurons before CSD: 4 hours after 30 mg/kg i.v.
Description: Cortical spreading depression (CSD) was induced mechanically by inserting a glass micropipette (tip diameter 25 μm) about 1 mm into the visual cortex for 10 sec. At a propagation rate of 3-5 mm/min, a single wave of CSD was expected to enter the neuronal receptive field within 1-2 min of cortical stimulation. For verification of CSD, cortical activity was recorded (electrocorticogram) with a glass micropipette (0.9% saline, ˜1 megohm, 7 um tip) placed just below the surface of the cerebral cortex (approximately 100 μm). The electrocorticogram electrode was positioned about 6 mm anterior to the visual cortex.
It was diluted in saline to a final dose of 30 mg/kg and administered intravenously (bolus injection, total volume 0.6-0.7 ml). A corresponding human IgG2 isotype control antibody (isotype-conAb) was also diluted in saline to a final dose of 30 mg/kg and administered intravenously (bolus injection, total volume 1.6-2.0 ml).
The experimental protocol included two parts. The first part was designed to compare CGRP-mAb vs isotype-conAb effects on spontaneous and induced activity of naïve trigeminovascular neurons, and the second part was designed to test CGRP-mAb vs isotype-conAb effects on the activation and sensitization of trigeminovascular neurons by CSD. Both parts included sampling of WDR and HT neurons in male and female rats. In the first part, the baseline neuronal profile was established by (a) mapping the dural, cutaneous and corneal receptive field; (b) measuring responses (mean spikes/sec) to mechanical stimulation of the dura (with a fixed force), skin (brush, pressure, pinch) and cornea (brush), and (c) measuring spontaneous firing rate (recorded over 30 min prior to treatment). Once the baseline was established, CGRP-mAb or isotype-conAb were administered and receptive fields were remapped, neuronal responses to stimulation of the dura, skin and cornea were re-examined, and the spontaneous activity rate was re-sampled at 1, 2, 3, and 4 hours post-treatment. The resulting values for each measure were then compared with the respective baseline values obtained before treatment. In the second part, CSD was induced 4 hours after administration of CGRP-mAb or isotype-conAb and 2 hours later (i.e., 6 hours after treatment) receptive field size, spontaneous activity rate, and response magnitude to stimulation of the dura, skin and cornea were measured again. The resulting post-CSD values for each measure were then compared with the respective pre-CSD values obtained at the 4-hour post-treatment time. This part was initiated only in cases in which the physiological condition of the rats (heart rate, blood pressure, respiration, end tidal CO2) and the neuronal isolation signal (signal-to-noise ratio ≥1:3) were stable at the 4-hour post-treatment time point.
To calculate the response magnitude to each stimulus, the mean firing frequency occurring before the onset of the first stimulus (30 min for spontaneous activity, 10 sec for mechanical stimulation of the dura, skin and cornea) was subtracted from the mean firing frequency that occurred throughout the duration of each stimulus. […] A neuron was considered activated when its mean firing rate after CSD exceeded its mean baseline activity by 2 standard deviations of that mean for a period >10 min, which translated to ≥33% increase in activity. […] Mean firing rates of respective values were compared using nonparametric statistics (Wilcoxon signed-ranks test). Two-tailed level of significance was set at 0.05.

[1] = male and female rats, case-by-case analysis

B1: G1: humanized monoclonal anti-CGRP antagonist antibody; heavy chain SEQ ID NO:11, light chain SEQ ID NO:12 (antibody)
heavy: EVQLVESGGGLVQPGGSLRLSCAASGFTFSNYWISWVRQAPGKGLEWVAEIRSESDASATHYAEAVKGRFTISRDNAKNSLYLQMNSLRAEDTAVYYCLAYFDYGLAIQNYWGQGTLVTVSSASTKGPSVFPLAPCSRSTSESTAALGCLVKDYFPEPVTVSWNSGALTSGVHTFPAVLQSSGLYSLSSVVTVPSSNFGTQTYTCNVDHKPSNTKVDKTVERKCCVECPPCPAPPVAGPSVFLFPPKPKDTLMISRTPEVTCVVVDVSHEDPEVQFNWYVDGVEVHNAKTKPREEQFNSTFRVVSVLTVVHQDWLNGKEYKCKVSNKGLPSSIEKTISKTKGQPREPQVYTLPPSREEMTKNQVSLTCLVKGFYPSDIAVEWESNGQPENNYKTTPPMLDSDGSFFLYSKLTVDKSRWQQGNVFSCSVMHEALHNHYTQKSLSLSPGK
light: EIVLTQSPATLSLSPGERATLSCKASKRVTTYVSWYQQKPGQAPRLLIYGASNRYLGIPARFSGSGSGTDFTLTISSLEPEDFAVYYCSQSYNYPYTFGQGTKLEIKRTVAAPSVFIFPPSDEQLKSGTASVVCLLNNFYPREAKVQWKVDNALQSGNSQESVTEQDSKDSTYSLSSTLTLSKADYEKHKVYACEVTHQGLSSPVTKSFNRGEC
With B1 the “difference between CGRP-mAb and isotype-conAb in HT neurons activated by CSD” value (case-by-case analysis) was 86%, the “difference between CGRP-mAb and isotype-conAb in WDR neurons activated by CSD” value (case-by-case analysis) was 2% and the “HT neurons with expansion of dural receptive fields after CSD (number/total)” value (female rats) was 0/6. The “HT neurons with expansion of facial receptive fields after CSD (number/total)” value (female rats) was 0/6, the “response of HT neurons to dural indentation with VFH before CSD” value (female rats) was 10.5±1.6 spikes/sec and the “response of HT neurons to brushing the cornea after CSD vs before” value (female rats, 6 HT neurons, p=0.51) was “remained unchanged”. The “mean firing rate of HT neurons after CSD” value (female rats, 2 hours after CSD) was 5.0±3.4 spikes/sec, the “response of HT neurons to dural indentation with VFH after CSD” value (female rats, 2 hours after CSD, 6 hours after administration) was 8.1±6.4 spikes/sec and the “mean firing rate of HT neurons before CSD” value (female rats) was 3.3±1.7 spikes/sec. The “neuronal responses of HT neurons to brush, pressure and pinch after CSD vs before” value (male and female rats, 2 hours after CSD, 6 hours after administration) was “remained unchanged”, the “HT neurons activated by CSD (number/total)” value [1] was 2/14 and the “WDR neurons activated by CSD (number/total)” value [1] was 5/13. The “HT neurons with expansion of dural receptive fields after CSD (number/total)” value (male rats) was 2/8, the “HT neurons with expansion of facial receptive fields after CSD (number/total)” value (male rats) was 2/8 and the “response of HT neurons to corneal stimulation after CSD” value (male rats) was 9.4±1.8 spikes/sec. The “response of HT neurons to corneal stimulation before CSD” value (male rats) was 10.8±3.3 spikes/sec, the “response of HT neurons to dural indentation with VFH before CSD” value (male rats) was 1.8±0.6 spikes/sec and the “mean firing rate of HT neurons after CSD” value (male rats, 2 hours after CSD) was 1.9±1.5 spikes/sec. For the same molecule, the “response of HT neurons to dural indentation with VFH after CSD” value (male rats, 2 hours after CSD, 6 hours after administration) was 1.9±1.5 spikes/sec and the “mean firing rate of HT neurons before CSD” value (male rats) was 1.2±0.6 spikes/sec.
